Assay results reported in patent publication US20260166140A1, “Combinations Involving Epidermal Growth Factor Receptor Tyrosine Kinase Inhibitors For the Treatment of Cancer” (AstraZeneca AB, priority 2022, published 2026).

Legend:
[1] = target: T1, Human cMET (recombinant, soluble monomeric) (human, UniProt P08581 25-932); assay: SPR, Biacore T200, antibody captured on anti-human IgG, soluble monomeric antigen as analyte, 25 C
T1 construct: in the HTRF assay it is called the human cMET receptor; also called His-tagged cMET antigen

[2] = target: T2, Mouse EGFR (recombinant, soluble monomeric) (mouse, UniProt Q01279 25-647); assay: as above
T2 construct: also called murine EGFR

[3] = target: T3, Human EGFR (recombinant, soluble monomeric) (human, UniProt P00533 25-645); assay: as above
T3 construct: also called EGFR antigen

[4] = target: T4, Cynomolgus monkey EGFR (recombinant, soluble monomeric) (cynomolgus monkey, UniProt P55245 25-645 (rhesus entry)); assay: as above
T4 construct: also called cyno EGFR

[5] = target: T5, Cynomolgus monkey cMET (recombinant, soluble monomeric) (cynomolgus monkey, UniProt A0M8R7 25-932 (Papio anubis entry)); assay: as above
T5 construct: also called cyno cMET

Human EGFR = Human EGFR (Homo sapiens, UniProt P00533); assay: ELISA species cross reactivity; assay type: binding; settings: antibody 10 to 0.002 μg/mL
Experimental: (§1) Specificity for EGFR and cMET species paralogs and closely related family members was determined by ELISA. Briefly, antigen solutions were prepared in PBS at 1 μg/mL and 50 microliters was coated onto half area ELISA assay plates. Plates were washed and blocked with 1% BSA in PBS containing 0.005% Tween-20 (PBS-T) for one hour at room temperature. The wells were washed 4 times in PBS-T. As set out in FIG. 3, the primary antibodies used where: R374 (a non-binding IgG1 isotype control antibody), B09 (anti-cMET antibody), QD6 (anti-EGFR antibody), RAA22 (anti-EGFR antibody), QD6/B09 (bispecific EGFR/c-MET DuetMAb), RAA22/B09 (bispecific EGFR/c-MET DuetMAb), PaniX (anti-EGFR antibody), MetMab (anti-cMET antibody) and Mab11311 (anti-HER4 antibody). Wells were incubated with 50 microliters of the indicated primary antibodies diluted in PBS-T in a 1:3 dilution series, starting at 10 μg/mL and ending at 0.002 μg/mL, except for the HER4 binding mAb control, MAB1131, for which the series started at 1 μg/mL. The wells were washed 4 times in PBS-T, then 50 μl of goat anti-human Fab HRP-labeled secondary antibody, diluted 1:5000 in PBS-T, was added to each well and incubated for one hour at room temperature. […] 50 microliters of TMB stop solution was added to all wells and the absorbance was read at 450 nm on a SpectraMax M5 microplate reader. Data were analyzed in the SoftMax Pro 5 software and plotted using GraphPad Prism 7 graphing software.
(§2) To determine the species cross reactivity, ELISA assays were carried out as described above. […] There was no detectable binding of any of the antibodies to mouse cMET.

Mouse EGFR = target: T6, Mouse EGFR (Mus musculus, UniProt Q01279); assay: ELISA species cross reactivity; assay type: binding
T6 construct: purchased SinoBiological 51091-M08H
Experimental: as §1, §2

Cynomolgus monkey EGFR = assay: ELISA species cross reactivity; assay type: binding
Experimental: as §1, §2

HER2 = target: T7, HER2 (UniProt P04626 23-652, limits assumed); assay: ELISA: antigen coated at 1 ug/mL, antibody dilution series, goat anti-human Fab-HRP, A450; panel Human HER2
T7 construct: also called EGFR HER family protein HER2

H1975 cells = assay: Internalization of AF647-labeled antibodies, live cell confocal fluorescence microscopy; assay type: cell-based; settings: for internalization half-times: images every 5 min
Experimental: Internalization kinetics of AlexaFluor647 (AF647) primary-labeled DuetMabs: RAA22/B09 and QD6/B09 antibodies was assessed in vitro using the EGFR and c-MET expressing cell line, H1975. Each antibody was pre-bound to cells and antibody translocation from cell surface to cytoplasm was then monitored using live cell confocal fluorescence microscopy. Both antibodies localized primarily on the cell surface before (T=0) subjecting to internalization conditions and were translocated to the cytoplasm area after 1 hour (data not shown). Kinetic images were taken every 5 min over the time course of internalization and were processed using a quantitative algorithm to determine internalization kinetic constants and half-times.
To evaluate the mode of antibody internalization and to investigate contribution of each arm to overall internalization of the DuetMabs, we evaluated internalization of single-arm specific control antibody molecules, QD6/IgG and B09/IgG, against duet QD6/B09, and RAA22/IgG and B09/IgG against duet RAA22/B09 in H1975 cells, which express both EGFR and c-MET. Since only one arm is specific for the target receptor, the control antibody can only internalize via one receptor eliminating dual receptor targeting and cross-linking as mode of internalization.

T1 sequence (P08581 25-932): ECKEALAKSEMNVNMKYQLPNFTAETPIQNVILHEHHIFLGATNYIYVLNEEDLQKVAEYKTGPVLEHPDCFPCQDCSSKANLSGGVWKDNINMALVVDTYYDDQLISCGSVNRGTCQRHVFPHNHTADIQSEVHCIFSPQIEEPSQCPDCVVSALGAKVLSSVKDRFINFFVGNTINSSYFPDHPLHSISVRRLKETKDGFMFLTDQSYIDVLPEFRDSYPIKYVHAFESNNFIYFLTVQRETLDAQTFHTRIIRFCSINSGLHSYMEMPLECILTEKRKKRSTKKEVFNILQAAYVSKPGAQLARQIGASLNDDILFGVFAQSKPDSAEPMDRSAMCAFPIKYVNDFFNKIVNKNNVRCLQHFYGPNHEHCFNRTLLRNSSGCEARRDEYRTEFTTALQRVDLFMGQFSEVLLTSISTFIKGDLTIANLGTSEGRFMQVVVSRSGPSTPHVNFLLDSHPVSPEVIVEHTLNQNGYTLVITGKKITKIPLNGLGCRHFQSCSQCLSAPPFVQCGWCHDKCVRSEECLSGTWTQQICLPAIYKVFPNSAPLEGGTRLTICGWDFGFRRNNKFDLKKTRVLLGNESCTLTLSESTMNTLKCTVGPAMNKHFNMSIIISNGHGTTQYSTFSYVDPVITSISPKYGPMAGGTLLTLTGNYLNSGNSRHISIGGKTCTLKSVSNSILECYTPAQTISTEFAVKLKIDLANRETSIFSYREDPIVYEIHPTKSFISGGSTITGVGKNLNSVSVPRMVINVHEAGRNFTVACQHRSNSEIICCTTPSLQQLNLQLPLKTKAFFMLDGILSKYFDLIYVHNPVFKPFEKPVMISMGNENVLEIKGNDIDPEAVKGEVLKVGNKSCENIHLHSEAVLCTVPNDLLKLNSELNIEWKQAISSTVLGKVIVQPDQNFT
T5 sequence (A0M8R7 25-932 S170N/I621T): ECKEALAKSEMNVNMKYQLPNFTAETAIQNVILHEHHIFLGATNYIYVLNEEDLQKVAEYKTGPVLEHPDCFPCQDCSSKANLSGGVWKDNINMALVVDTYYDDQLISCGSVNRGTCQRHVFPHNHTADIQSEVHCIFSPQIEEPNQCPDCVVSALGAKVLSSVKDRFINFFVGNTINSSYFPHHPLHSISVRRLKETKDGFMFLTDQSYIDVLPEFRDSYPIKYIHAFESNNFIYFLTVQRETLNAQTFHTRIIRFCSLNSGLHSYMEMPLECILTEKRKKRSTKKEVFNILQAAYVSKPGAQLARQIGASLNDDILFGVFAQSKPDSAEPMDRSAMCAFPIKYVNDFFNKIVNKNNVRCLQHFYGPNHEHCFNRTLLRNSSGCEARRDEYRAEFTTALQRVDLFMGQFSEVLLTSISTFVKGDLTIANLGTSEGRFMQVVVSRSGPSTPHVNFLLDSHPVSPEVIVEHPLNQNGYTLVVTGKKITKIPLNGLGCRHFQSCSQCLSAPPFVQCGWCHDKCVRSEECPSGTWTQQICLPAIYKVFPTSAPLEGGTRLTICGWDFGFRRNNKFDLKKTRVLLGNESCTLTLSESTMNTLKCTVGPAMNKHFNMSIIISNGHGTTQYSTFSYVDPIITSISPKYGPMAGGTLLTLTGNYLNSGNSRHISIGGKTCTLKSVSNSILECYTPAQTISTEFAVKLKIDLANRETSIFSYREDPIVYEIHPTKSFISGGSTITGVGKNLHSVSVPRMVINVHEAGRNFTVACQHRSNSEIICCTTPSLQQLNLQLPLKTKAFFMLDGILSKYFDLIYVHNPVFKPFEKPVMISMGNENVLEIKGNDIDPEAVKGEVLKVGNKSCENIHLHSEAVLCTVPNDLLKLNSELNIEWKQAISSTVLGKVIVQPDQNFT

B1: RAA22/B09-57 DuetMab (bispecific antibody, human IgG1, kappa, lambda)
heavy 1: QVQLVQSGAEVKKPGSSVKVSCKASGGTFSDNDFSWVRQAPGQGLEWMGAIVAVFRTETYAQKFQDRVKITADISTRTTYMELSSLRSEDTAVYYCARRLMSAISGPGAPLLMWGQGTLVTVSSASTKGPSVFPLAPSSKSTSGGTAALGCLVKDYFPEPVTVSWNSGALTSGVHTFPAVLQSSGLYSLSSVVTVPSSSLGTQTYICNVNHKPSNTKVDKRVEPKSCDKTHTCPPCPAPELLGGPSCVFLFPPKPKDTLMISRTPEVTCVVVDVSHEDPEVKFNWYVDGVEVHNAKTKPREEQYNSTYRVVSVLTVLHQDWLNGKEYKCKVSNKALPAPIEKTISKAKGQPREPQVCTLPPSREEMTKNQVSLSCAVKGFYPSDIAVEWESNGQPENNYKTTPPVLDSDGSFFLVSKLTVDKSRWQQGNVFSCSVMHEALHNHYTQKSLSLSPGK
heavy 2: QVQLVQSGAEVKKPGASVKVSCKASGYTFTDYYIHWVRQATGQGLEWMGWMNPNSGNTGYAQKFQGRVTMTRDTSISTAYMELSSLRSEDTAVYYCARGQGYTHSWGQGTMVTVSSASTKGPSVCPLAPSSKSTSGGTAALGCLVKDYFPEPVTVSWNSGALTSGVHTFPAVLQSSGLYSLSSVVTVPSSSLGTQTYICNVNHKPSNTKVDKRVEPKSVDKTHTCPPCPAPELLGGPSCVFLFPPKPKDTLMISRTPEVTCVVVDVSHEDPEVKFNWYVDGVEVHNAKTKPREEQYNSTYRVVSVLTVLHQDWLNGKEYKCKVSNKALPAPIEKTISKAKGQPREPQVYTLPPCREEMTKNQVSLWCLVKGFYPSDIAVEWESNGQPENNYKTTPPVLDSDGSFFLYSKLTVDKSRWQQGNVFSCSVMHEALHNHYTQKSLSLSPG
light 1: QSALTQPRSVSGSPGQSVTISCTGTSSDVGGYNYVSWYQQHPGKAPKLMIYDVSKRPSGVPDRFSGSKSGNTASLTISGLQAEDEADYYCSSYTSSDTLEIFGGGTKLTVLGQPKAAPSVTLFPPSSEELQANKATLVCLISDFYPGAVTVAWKADSSPVKAGVETTTPSKQSNNKYAASSYLSLTPEQWKSHRSYSCQVTHEGSTVEKTVAPTECS
light 2: DIQMTQSPSTLSASVGDRVTITCRASEGIYHWLAWYQQKPGKAPKLLIYKASSLASGVPSRFSGSGSGTEFTLTISSLQPDDFATYYCQQYSNYPPTFGGGTKLEIKRTVAAPSVFIFPPCDEQLKSGTASVVCLLNNFYPREAKVQWKVDNALQSGNSQESVTEQDSKDSTYSLSSTLTLSKADYEKHKVYACEVTHQGLSSPVTKSFNRGEV
notes: also called monovalent bispecific EGFR/cMET DuetMAb RAA22/B09; RAA22/B09-Maia
[1]
  Kd: 2.2 nM
  koff: 0.000986 s⁻¹
  kon: 443000 M⁻¹ s⁻¹
[2]
  Kd: 575 nM
  koff: 0.0206 s⁻¹
  kon: 35400 M⁻¹ s⁻¹
[3]
  Kd: 45 nM
  koff: 0.00201 s⁻¹
  kon: 44700 M⁻¹ s⁻¹
[4]
  Kd: 197 nM
  koff: 0.00548 s⁻¹
  kon: 27800 M⁻¹ s⁻¹
[5]
  Kd: 2.2 nM
  koff: 0.00212 s⁻¹
  kon: 974000 M⁻¹ s⁻¹
Human EGFR
  ELISA binding: still weaker binding
Mouse EGFR
  ELISA binding: nominal binding
Cynomolgus monkey EGFR
  ELISA binding: still weaker binding
HER2
  binding result: no binding (tested: 10 ug/ml)
H1975 cells
  binding at T=0: 3.5×10^6 MFI
  cytoplasmic intensity values, fold higher than B09-IgG: 4.70 fold
  cytoplasmic intensity values, fold higher than RAA22-IgG: 10.98 fold
  internalization half-times: 43.2 ± 15.5 min

B2: QD6/B09-57 DuetMab (bispecific antibody, human IgG1, kappa, lambda)
heavy 1: QVQLVQSGAEVKKPGSSVKVSCKASGGTFSDNDFSWVRQAPGQGLEWMGAIVAVVRTETYAQKFQDRVKITADISTRTTYMELSSLRSEDTAVYYCARRLMSAISGPGAPLLMWGQGTLVTVSSASTKGPSVFPLAPSSKSTSGGTAALGCLVKDYFPEPVTVSWNSGALTSGVHTFPAVLQSSGLYSLSSVVTVPSSSLGTQTYICNVNHKPSNTKVDKRVEPKSCDKTHTCPPCPAPELLGGPSCVFLFPPKPKDTLMISRTPEVTCVVVDVSHEDPEVKFNWYVDGVEVHNAKTKPREEQYNSTYRVVSVLTVLHQDWLNGKEYKCKVSNKALPAPIEKTISKAKGQPREPQVCTLPPSREEMTKNQVSLSCAVKGFYPSDIAVEWESNGQPENNYKTTPPVLDSDGSFFLVSKLTVDKSRWQQGNVFSCSVMHEALHNHYTQKSLSLSPGK
heavy 2: QVQLVQSGAEVKKPGASVKVSCKASGYTFTDYYIHWVRQATGQGLEWMGWMNPNSGNTGYAQKFQGRVTMTRDTSISTAYMELSSLRSEDTAVYYCARGQGYTHSWGQGTMVTVSSASTKGPSVCPLAPSSKSTSGGTAALGCLVKDYFPEPVTVSWNSGALTSGVHTFPAVLQSSGLYSLSSVVTVPSSSLGTQTYICNVNHKPSNTKVDKRVEPKSVDKTHTCPPCPAPELLGGPSCVFLFPPKPKDTLMISRTPEVTCVVVDVSHEDPEVKFNWYVDGVEVHNAKTKPREEQYNSTYRVVSVLTVLHQDWLNGKEYKCKVSNKALPAPIEKTISKAKGQPREPQVYTLPPCREEMTKNQVSLWCLVKGFYPSDIAVEWESNGQPENNYKTTPPVLDSDGSFFLYSKLTVDKSRWQQGNVFSCSVMHEALHNHYTQKSLSLSPG
light 1: QSALTQPRSVSGSPGQSVTISCTGTSSDVGGYNYVSWYQQHPGKAPKLMIYDVSERPSGVPDRFSGSKSGNTASLTISGLQAEDEADYYCFSYTSSDTLEIFGGGTKLTVLGQPKAAPSVTLFPPSSEELQANKATLVCLISDFYPGAVTVAWKADSSPVKAGVETTTPSKQSNNKYAASSYLSLTPEQWKSHRSYSCQVTHEGSTVEKTVAPTECS
light 2: DIQMTQSPSTLSASVGDRVTITCRASEGIYHWLAWYQQKPGKAPKLLIYKASSLASGVPSRFSGSGSGTEFTLTISSLQPDDFATYYCQQYSNYPPTFGGGTKLEIKRTVAAPSVFIFPPCDEQLKSGTASVVCLLNNFYPREAKVQWKVDNALQSGNSQESVTEQDSKDSTYSLSSTLTLSKADYEKHKVYACEVTHQGLSSPVTKSFNRGEV
notes: also called monovalent bispecific EGFR/cMET DuetMAb QD6/B09
[1]
  Kd: 1.6 nM
  koff: 0.000696 s⁻¹
  kon: 425000 M⁻¹ s⁻¹
[2]
  Kd: 6.2 nM
  koff: 0.00078 s⁻¹
  kon: 126000 M⁻¹ s⁻¹
[3]
  Kd: 5.9 nM
  koff: 0.000374 s⁻¹
  kon: 63500 M⁻¹ s⁻¹
[4]
  Kd: 2.8 nM
  koff: 0.000585 s⁻¹
  kon: 210000 M⁻¹ s⁻¹
[5]
  Kd: 2.2 nM
  koff: 0.00206 s⁻¹
  kon: 958000 M⁻¹ s⁻¹
Human EGFR
  ELISA binding: gave robust signals
Mouse EGFR
  ELISA binding: gave robust signals
Cynomolgus monkey EGFR
  ELISA binding: gave robust signals
HER2
  binding result: no binding (tested: 10 ug/ml)
H1975 cells
  internalization half-times: 37.5 ± 10.6 min
